Assay results as given in patent publication US20180346569A1 (LYVGEN BIOPHARMA, published 2018).

Columns and labels:
[1] = molecular target: T1, Human PD-1-His tag protein (Sino Biological Inc. Cat#10377-H08H-100) (human, UniProt Q15116 25-167); assay: ELISA, antibody coated at 1 ug/ml, human PD-1-His titrated (the concentration axis is that of PD-1-His), detected with anti-His-HRP
T1 construct: Bought protein; not shown: His tag
Method: (§1) The PD-1 antibody sample was diluted in PBS to 1 ug/ml and was coated in an ELISA plate (Costar, Cat#3590, high binding) 100 ul/well, 4° C. overnight. The plate was decanted and blocking solution (eBioscience, ELISA/ELISPOT Diluent, Cat#00-4202-55) was added 200 ul/well. After 1 hour incubation at room temperature, the plate was washed with PBST three times. […] The plate was incubated 1 hour at room temperature and then washed four times with PBST. Anti-His-HRP (Genscript Cat#A00612) at 1:2000 dilution was added to the plate 100 ul/well. The plate was incubated 1 hour at room temperature followed by washing with PBST four times. The TMB substrate solution was added 100 ul/well. Let the color develop for 15 minutes and add 50 ul/well 1M H2SO4 to terminate the reaction. Absorbance at 450 nm was determined in FlexStation 3 ELISA reader.

[2] = molecular target: T2, rhesus monkey PD-1-His (Sino Biological Inc. Cat#90305-KO8H-100) (rhesus monkey, UniProt B0LAJ2 25-170); assay: ELISA, antibody coated at 1 ug/ml, rhesus monkey PD-1-His titrated (the concentration axis is that of PD-1-His), detected with anti-His-HRP
T2 construct: Bought protein; also called Rehsus monkey PD-1
Method: as §1

[3] = molecular target: T1, Human PD-1-His tag protein (Sino …); assay: ELISA, antibody coated at 1 ug/ml, PD-1-His titrated, detected with anti-His-HRP; antibody coated on the plate, human PD-1-His titrated
Method: as §1

[4] = molecular target: T2, rhesus monkey PD-1-His (Sino Biological …); assay: ELISA, antibody coated at 1 ug/ml, PD-1-His titrated, detected with anti-His-HRP
Method: as §1

[5] = molecular target: T3, Cyno PD-1-Fc tag (Sino Biological Inc. Cat#90311-CO2H) (cynomolgus monkey, UniProt B0LAJ3 25-170); assay: ELISA, Cyno PD-1-Fc coated at 2 ug/ml, antibody titrated, detected with anti-human Ig kappa-HRP
T3 construct: Bought Fc fusion; also called PD-1 of cynomolgus monkey; Cynomolgus monkey PD-1
Method: To determine binding to PD-1 of cynomolgus monkey, Cyno PD-1—Fc tag (Sino Biological Inc. Cat#90311-CO2H) was diluted in PBS to 2 ug/ml, and 100 ul/well was used to coat an ELISA plate (Costar, Cat#3590, high binding), 4° C. overnight. The plate was decanted and blocking solution (eBioscience, ELISA/ELISPOT Diluent, Cat#00-4202-55) was added, 200 ul/well. After 1 hour incubation at room temperature, the plate was washed with PBST three times. The testing PD-1 antibody was diluted in blocking buffer to 0, 0.001, 0.01, 0.1, 1.10 ug/ml and added to the plate, 100 ul/well. The plate was incubated 1 hour at room temperature and then washed four times with PBST. Anti-Hu IgG-HRP (goat-anti-human Ig kappa-HRP, Millipore, Cat# AP502P) at 1:4000 dilution was added to the plate, 100 ul/well. The plate was incubated 1 hour at room temperature followed by washing with PBST four times. The TMB substrate solution was added 100 ul/well. The color developed for 15 minutes and 50 ul/well of 1M H2SO4 was added to terminate the reaction. Absorbance at 450 nm was determined in FlexStation 3 ELISA reader.

[6] = molecular target: T4, Human PD-1 (captured on an anti-His IgG Biacore chip) (human, UniProt Q15116 25-167); assay: SPR (Biacore), human PD-1 captured on anti-His IgG chip, SSI-361 injected at 3.125-50 nM, 1:1 model
T4 construct: It may be the same Sino Biological PD-1-His protein as m3; also called PD-1 antigen; not shown: His tag implied by capture on anti-His IgG
Method: Flow cells of a Series S CMS sensor chip (GE Healthcare Life Sciences) were activated with freshly mixed 50 mmol/L NHS and 200 mmol/L EDC for 360 seconds (10 μL/min). Then, anti-His IgGs, in 10 mmol/L NaAC (pH 5.0) was injected onto the activated flow cell (10 μL/min) for 300 seconds (10 μL/min) with HBS-EP+(10 mM HEPES, 150 mM NaCl, 3 mM EDTA and 0.05% P20, pH 7.4) as the running buffer. The remaining active coupling sites were blocked with a 420 second injection of 1 mol/L ethanolamine (10 μL/min). This procedure was repeated for 2 times to immobilized protein on 2 flow cells individually. Low flow rate overnight was maintained for the equilibrium of the immobilized proteins. Human PD-1 was captured on a flow cell 2 (10 μL/min). […] Flow cell 1 without captured antigen was used as reference flow cell. To remove the tested antibody and antigen from the surface, 10 mM glycine-HCl pH 1.5 was injected for 60s (10 μL/min, flow cell 1-2). The above procedures were repeated for each concentration of serially diluted tested antibody. The KD value (Table 1) was evaluated using Biacore X100 evaluation software 2.0 with 1:1 interaction binding model. Flow cell 1 was used as reference flow cell for data subtraction.

T4 sequence (Q15116 25-167): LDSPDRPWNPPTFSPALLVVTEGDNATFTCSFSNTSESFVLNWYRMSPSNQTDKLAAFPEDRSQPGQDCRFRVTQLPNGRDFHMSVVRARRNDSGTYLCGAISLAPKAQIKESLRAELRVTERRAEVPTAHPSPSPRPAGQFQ
T1 sequence (Q15116 25-167 limits assumed): as the sequence (Q15116 25-167) above
T2 sequence (B0LAJ2 entry or part of it limits assumed): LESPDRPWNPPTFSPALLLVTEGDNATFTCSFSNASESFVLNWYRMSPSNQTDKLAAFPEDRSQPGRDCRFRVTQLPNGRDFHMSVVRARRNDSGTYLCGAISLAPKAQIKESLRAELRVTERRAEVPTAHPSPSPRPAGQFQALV
T3 sequence (B0LAJ3 entry or part of it limits assumed): as the sequence (B0LAJ2 entry or part of it limits assumed) above, with P10A, R67Q, Q75R counted along it

EC50 (read off the curve) [1]: ~0.03 µg/mL
EC50 (read off the curve) [2]: ~0.05 µg/mL
EC50 [3]: 0.33 nM
EC50 [4]: 0.39 nM
EC50 [5]: 0.08 nM
EC50 (read off the curve) [5]: ~0.01 µg/mL
Kd [6]: 5.07 nM
koff [6]: 0.00117 s⁻¹
kon [6]: 230000 M⁻¹ s⁻¹
B1: SSI-361 (humanized SHB-617 in human IgG4 S228P/kappa) (antibody, V domains shown)
VH: QVTLKESGPALVKPTQTLTLTCTFSGFSLSTSGTCVSWIRQPPGKALEWLATICWEDSKGYNPSLKSRLTISKDTSKNQAVLTMTNMDPVDTATYYCARREDSGYFWFPYWGQGTLVTVSS
VL: NIQMTQSPSSLSASVGDRVTITCKAGQNVNNYLAWYQQKPGKAPKVLIFNANSLQTGVPSRFSGSGSGTDFTLTISSLQPEDFATYYCQQYNSWTTFGGGTKVEIKR
notes: Full human IgG4 (hinge S228P, EU numbering)/kappa, expressed in HEK293 or CHO cells; also called PD-1 Ab01
